± gives the uncertainty stated by the source.
Experiment: self-splicing fitness, log relative to wild type (ln ratio); higher = more splicing; Tetrahymena group I intron in knt gene, E. coli kanamycin selection, DiMSum; sequences stand for … in CUCUCU…GGAGGGAAAAGUUAUCAGGCAUGCACCUGGUAGCUAGUCUUUAAACCAAUAGAUUGCAUCGGUUUAAAAGGCAAGACCGUCAAAUUGCGGGAAAGGGGUCAACAGCCGUUCAGUACCAAGUCUCAGGGGAAACUUUGAGAUGGCCUUGCAAAGGGUAUGGUAAUAAGCUGACGGACAUGGUCCUAACCACGCAGCCAAGUCCUAAGUCAACAGAUCUUCUGUUGAUAUGGAUGCAGUUCACAGACUAAAUGUCGGUCGGGGAAGAUGUAUUCUUCUCAUAAGAUAUAGUCGGACCUCUCCUUAAUGGGAGCUAGCGGAUGAAGUGAUGCAACACUGGAGCCGCUGGGAACUAAUUUGUAUGCGAAAGUAUAUUGAUUAGUUUUGGAGUACUCGUGGUCG
Method in brief: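 Library with all eight P1ex-region intron nucleotides randomised, intron inside the knt kanamycin-resistance gene on pET-22b(+), in E. coli BL21(DE3). Cells grew overnight at 37°C or 30°C on LB agar with or without 25 μg/mL kanamycin (plus 100 μg/mL carbenicillin, 50 μM IPTG, 0.2% rhamnose), in six replicate transformations. Pooled colonies were amplicon-sequenced on Illumina HiSeq 2500. DiMSum fitness is the error-weighted combination of wild-type-normalised replicate fold changes, kanamycin versus none.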

Sequence	self-splicing fitness (ln) (30 °C)	self-splicing fitness (ln) (37 °C)
CUUCAGCAAUAUUACGACUC	-2.49 ± 0.21	-1.46 ± 0.23
CUUCAGCAAUAUUACGAGGU	-4.39 ± 0.42	-2.9 ± 0.27
CUUCAGCAAUAUUACGAUAA	-2.68 ± 0.19	-1.07 ± 0.14
CUUCAGCAAUAUUACGAUAC	-3.22 ± 0.19	-2.14 ± 0.33
CUUCAGCAAUAUUACGCCAA	–	-2.31 ± 0.48
CUUCAGCAAUAUUACGCCAG	-0.975 ± 0.11	-0.132 ± 0.17
CUUCAGCAAUAUUACGCGGA	-1.83 ± 0.21	-2.74 ± 0.3
CUUCAGCAAUAUUACGCGUG	-0.775 ± 0.08	-0.978 ± 0.1
CUUCAGCAAUAUUACGGAGG	-3.09 ± 0.21	-2.09 ± 0.26
CUUCAGCAAUAUUACGGCAU	-2.78 ± 0.17	-2.1 ± 0.2
CUUCAGCAAUAUUACGGGGC	-2.93 ± 0.22	-2.21 ± 0.34
CUUCAGCAAUAUUACGGUGG	-2.39 ± 0.12	-1.18 ± 0.15
CUUCAGCAAUAUUACGGUUC	-3.39 ± 0.2	-1.69 ± 0.18
CUUCAGCAAUAUUACGUAAG	-0.469 ± 0.084	-0.514 ± 0.1
CUUCAGCAAUAUUACGUACU	-4.13 ± 0.19	-2.8 ± 0.19
CUUCAGCAAUAUUACGUCUC	-3.17 ± 0.2	-3.03 ± 0.2
CUUCAGCAAUAUUACGUGGG	-3.96 ± 0.16	-2.38 ± 0.19
CUUCAGCAAUAUUACGUGUA	-3.11 ± 0.13	-3.22 ± 0.21
CUUCAGCAAUAUUACGUUGC	-4.23 ± 0.3	-3.04 ± 0.25
CUUGAGCAAUAUUACGAACU	-4.03 ± 0.46	-2.09 ± 0.32
CUUGAGCAAUAUUACGAAGU	-3.67 ± 0.33	-3.38 ± 0.35
CUUGAGCAAUAUUACGACAG	-1.19 ± 0.1	-0.98 ± 0.14
CUUGAGCAAUAUUACGAGAU	-3.68 ± 0.37	-0.585 ± 0.15
CUUGAGCAAUAUUACGAUAC	-3.57 ± 0.42	–
CUUGAGCAAUAUUACGCACC	–	-1.68 ± 0.4

Sequence	self-splicing fitness (ln) (30 °C)	self-splicing fitness (ln) (37 °C)
CUUGAGCAAUAUUACGCGGC	-2.63 ± 0.27	-1.43 ± 0.43
CUUGAGCAAUAUUACGCGUA	-3.18 ± 0.35	-2.31 ± 0.27
CUUGAGCAAUAUUACGCUAG	-3.17 ± 0.28	-2.48 ± 0.27
CUUGAGCAAUAUUACGCUCA	-1.12 ± 0.32	-2.33 ± 0.29
CUUGAGCAAUAUUACGCUUG	–	-1.83 ± 0.41
CUUGAGCAAUAUUACGGCAC	-2.5 ± 0.34	-2.71 ± 0.39
CUUGAGCAAUAUUACGGGUA	-3.78 ± 0.33	-2.53 ± 0.24
CUUGAGCAAUAUUACGGGUU	-2.91 ± 0.32	-2.92 ± 0.28
CUUGAGCAAUAUUACGGUUG	-2.28 ± 0.097	-1.95 ± 0.14
CUUGAGCAAUAUUACGUGGA	-2.88 ± 0.24	-3.25 ± 0.33
CUUGAGCAAUAUUACGUUAC	-3 ± 0.33	-2.44 ± 0.32
CUUGAGCAAUAUUACGUUGA	-3.17 ± 0.27	-1.97 ± 0.22
CUUUAGCAAUAUUACGACGU	-3.69 ± 0.38	-1.86 ± 0.3
CUUUAGCAAUAUUACGAUCG	0.191 ± 0.17	0.476 ± 0.22
CUUUAGCAAUAUUACGAUCU	-3.2 ± 0.36	-2.48 ± 0.45
CUUUAGCAAUAUUACGCAAA	-2.51 ± 0.21	-1.34 ± 0.2
CUUUAGCAAUAUUACGCCGU	-2.68 ± 0.41	–
CUUUAGCAAUAUUACGCGGG	-3.35 ± 0.3	-2.31 ± 0.32
CUUUAGCAAUAUUACGCUGU	-2.75 ± 0.25	-2.35 ± 0.37
CUUUAGCAAUAUUACGGAGA	-2.74 ± 0.49	–
CUUUAGCAAUAUUACGGAUA	-3.21 ± 0.42	-2.7 ± 0.34
CUUUAGCAAUAUUACGGGCU	–	-1.66 ± 0.41
CUUUAGCAAUAUUACGGGGG	-4.05 ± 0.46	-2.65 ± 0.45
CUUUAGCAAUAUUACGGUAC	-2.49 ± 0.28	-3.08 ± 0.47
CUUUAGCAAUAUUACGGUCA	-2.41 ± 0.25	-3.28 ± 0.35

Sequence	self-splicing fitness (ln) (30 °C)	self-splicing fitness (ln) (37 °C)
CUUUAGCAAUAUUACGUAGC	–	-1.6 ± 0.49
CUUUAGCAAUAUUACGUCCA	-3.2 ± 0.41	-0.864 ± 0.24
CUUUAGCAAUAUUACGUCUU	-3.41 ± 0.26	-3.28 ± 0.33
CUUUAGCAAUAUUACGUGAA	-3.77 ± 0.35	-2.65 ± 0.28
CUUUAGCAAUAUUACGUGGG	-3.1 ± 0.17	-2.96 ± 0.27
CUUUAGCAAUAUUACGUGUU	-3.49 ± 0.18	-3.77 ± 0.22
CUUUAGCAAUAUUACGUUAA	-2.87 ± 0.27	–
CUUUAGCAAUAUUACGUUAG	-2.49 ± 0.18	-2.32 ± 0.26
CUUUAGCAAUAUUACGUUUU	-3.27 ± 0.3	-2.39 ± 0.35
GAAAAGCAAUAUUACGAAGA	-2.88 ± 0.18	-1.34 ± 0.13
GAAAAGCAAUAUUACGACUA	0.0422 ± 0.14	0.403 ± 0.15
GAAAAGCAAUAUUACGCCCA	-0.288 ± 0.11	-0.385 ± 0.19
GAAAAGCAAUAUUACGCCGA	-1.01 ± 0.2	-0.824 ± 0.23
GAAAAGCAAUAUUACGCUCA	-0.514 ± 0.11	0.0911 ± 0.14
GAAAAGCAAUAUUACGCUUU	-3.39 ± 0.22	-2.39 ± 0.26
GAAAAGCAAUAUUACGGCCG	-0.796 ± 0.087	-0.537 ± 0.12
GAAAAGCAAUAUUACGGCGG	-1.86 ± 0.1	-1.59 ± 0.1
GAAAAGCAAUAUUACGGCUA	-0.156 ± 0.082	0.451 ± 0.082
GAAAAGCAAUAUUACGGGAA	-2.07 ± 0.14	-0.425 ± 0.13
GAAAAGCAAUAUUACGGGCU	-1.37 ± 0.15	-1.72 ± 0.21
GAAAAGCAAUAUUACGGUGC	-2.02 ± 0.12	-2.05 ± 0.18
GAAAAGCAAUAUUACGUAAC	-2.11 ± 0.18	-1.38 ± 0.17
GAAAAGCAAUAUUACGUAGA	-0.772 ± 0.076	-1.77 ± 0.13
GAAAAGCAAUAUUACGUAUU	-3.24 ± 0.13	-2.16 ± 0.11
GAAAAGCAAUAUUACGUGGG	-3.69 ± 0.13	-1.29 ± 0.11

Sequence	self-splicing fitness (ln) (30 °C)	self-splicing fitness (ln) (37 °C)
GAAAAGCAAUAUUACGUUGA	-2.87 ± 0.15	-1.24 ± 0.1
GAAAAGCAAUAUUACGUUUG	-2.71 ± 0.097	-2.02 ± 0.15
GAACAGCAAUAUUACGAAAG	-3.62 ± 0.18	-1.58 ± 0.13
GAACAGCAAUAUUACGAAGU	-2.04 ± 0.12	-0.944 ± 0.15
GAACAGCAAUAUUACGAAUC	-1.76 ± 0.08	-1.9 ± 0.13
GAACAGCAAUAUUACGAGAC	-2.13 ± 0.22	-1.21 ± 0.18
GAACAGCAAUAUUACGCACA	-0.348 ± 0.082	-0.338 ± 0.094
GAACAGCAAUAUUACGCAGU	-3.37 ± 0.11	-2.5 ± 0.13
GAACAGCAAUAUUACGCCGA	-0.857 ± 0.12	-0.581 ± 0.1
GAACAGCAAUAUUACGCGAA	-0.881 ± 0.086	-0.124 ± 0.12
GAACAGCAAUAUUACGCGCC	-0.957 ± 0.13	-0.851 ± 0.15
GAACAGCAAUAUUACGCGCU	-0.914 ± 0.088	-0.133 ± 0.11
GAACAGCAAUAUUACGCGGA	-1.94 ± 0.082	-0.737 ± 0.075
GAACAGCAAUAUUACGCUCU	-1.37 ± 0.17	-0.466 ± 0.15
GAACAGCAAUAUUACGGAAG	-3.32 ± 0.14	-1.73 ± 0.16
GAACAGCAAUAUUACGGACU	-1.28 ± 0.085	-0.212 ± 0.097
GAACAGCAAUAUUACGGGAU	-2.26 ± 0.084	-1.05 ± 0.079
GAACAGCAAUAUUACGGGUG	-1.88 ± 0.072	-1.59 ± 0.092
GAACAGCAAUAUUACGGUGG	-2 ± 0.095	-1.19 ± 0.1
GAACAGCAAUAUUACGGUGU	-2.02 ± 0.066	-0.373 ± 0.069
GAACAGCAAUAUUACGUACC	-0.94 ± 0.27	0.0452 ± 0.3
GAACAGCAAUAUUACGUUAG	-0.954 ± 0.047	-0.969 ± 0.067
GAACAGCAAUAUUACGUUCA	-2.31 ± 0.1	-1.49 ± 0.087

From the supplement of paper PMC7877785
